Measurements published in patent publication US20050260730A1, “CDK2/cyclin A crystals and uses thereof” (priority 2003, published 2005).
Non-standard residues stand in square brackets, D forms with d. Phe(4-F) = N[C@@H](Cc1ccc(F)cc1)C(=O)O

Target: cyclin A (human) (UniProt P20248)
Assay: competitive cyclin A binding assay

IC50: 19 µM
Substance: H-RRL[Phe(4-F)]-NH2
